Each substance was assayed against T1, human TNFα (Homo sapiens, UniProt P01375) (assay: p55 Receptor/IgG Fusion Protein Binding Assay (inhibition of TNFα capture by p55-Ig coated plate)). Details: peptide 1 mM; TNFα 25 ng/ml.
T1 construct: purchased Biosource, Camarillo, Calif
T1 sequence (P01375 77-233 limits assumed): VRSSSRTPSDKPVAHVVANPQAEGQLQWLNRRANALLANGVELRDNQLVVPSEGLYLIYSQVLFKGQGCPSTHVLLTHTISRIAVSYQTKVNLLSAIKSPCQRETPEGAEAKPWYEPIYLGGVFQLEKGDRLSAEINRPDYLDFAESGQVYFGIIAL

Row | inhibition of binding of TNFα to p55TNFr-IgG chimeric construct [%] | Substance
1 | 29 | SEQ ID NO:50: peptide of the invention that inhibits TNFα; sequence not printed (VAIPGNASRDAVATS)
2 | 68 | SEQ ID NO:51: peptide of the invention that inhibits TNFα; sequence not printed (PGNASRDAVATSTSP)
3 | 63 | SEQ ID NO:52: peptide of the invention that inhibits TNFα; sequence not printed (ASRDAVATSTSPTRS)
4 | 63 | SEQ ID NO:53: peptide of the invention that inhibits TNFα; sequence not printed (DAVATSTSPTRSMAP)
